Laboratory results taken from the DeepSol protein solubility set.

assay: soluble on expression in E. coli; label from the status in PepcDB or PDB records

Sequence | soluble on expression in E. coli
MGSDKIHHHHHHMSLKDYDAARLAQVREEVTAKYAELKAKNLSLDLTRGKPSAEQLDLSNDLLSLPGGDFRTKDGVDCRNYGGLLGIADIRELWAEALGLPADLVVAQDGSSLNIMFDLISWSYTWGNNDSSRPWSAEEKVKWLCPVPGYDRHFTITEHFGFEMINVPMTDEGPDMGVVRELVKDPQVKGMWTVPVFGNPTGVTFSEQTCRELAEMSTAAPDFRIVWDNAYALHTLSDEFPIVHNVIEFAQAAGNPNRFWFMSSTSKITHAGSGVSFFASSKENIEWYASHANVRGIGPNKLNQLAHAQFFGDVAGLKAHMLKHAASLAPKFERVLEILDSRLSEYGVAKWTSPTGGYFISVDVVPGTASRVVELAKEAGIALTGAGSSFPLHNDPNNENIRLAPSLPPVAELEVAMDGFATCVLMAALEV | not soluble
MAKIYNAPKPKYSGWEWFKFIAIRTVFPPVLLWDLIKIGANKLLGEWVSGLVLPAQNENFDDLAISDDTVSNYNEDDLICEKHDVITHDGAHLDTFEVRHRSQESIDPKYQKYIINLVGNGMCYEHIIDDIKEDSKALKANVIGFNLRGVGQSTGKAKSSEDLVADGIAQVQRLLDQGVSPQNITLKGHSLGAGVASLVAQHFHQLGQPINLFNSRSFSTITNFLVGHMRLERDEIGRAIGHKDSTVGTILGWLAKPFIKFGVALAKWEINAGSAFKSVPEAYKDYIVVRSRKEIRGERIDDAVIPHYASIHKELASERHKKKAEIDEEIANLDDIIRKADPLAKPGLANARDALVQAREKIKSDRKMETDVQYANGHNSDWNALHNRSGKSAQTFFREFVQRTEADHAVKSIPEIN | not soluble
MEKVKVKNPIVELDGDEMARVMWKMIKEKLILPYLDIQLVYFDLGIKKRDETDDQITIEAAKAIKKYGVGVKCATITPDAERVKEYNLKKAWKSPNATIRAYLDGTVFRKPIMVKNVPPLVKRWKKPIIIGRHAYGDIYNAVEAKVEGPAEVELVVRNKENKTLLVHKFEGNGVVMAMHNLEKSIRSFAQSCINYAISEKVDIWFATKDTISKVYHAYFKDIFQEEVDKRKEELEKAGVNYRYMLIDDAAAQILRSEGGMLWACMNYEGDIMSDMIASGFGSLGLMTSVLVSPDGVYEFEAAHGTVRRHYYRYLKGEKTSTNPTASIFAWTGAIRKRGELDGTPEVCEFADKLEKAVINTIESGVITKDLQPFTEPPIDKYVTLEEFIDEVKKNLEKLL | soluble
MSLERPLCISYIRFSKATQAEGSSLERQLQLSRTYAEEHGLVLDDKHSYQDLGKSAFTSEHVKEGEFGVFLEFVKQGRVPKGSVLLVESLDRLSRESVLTAFKQFQEILDAGIKIVTLSDKMEYTKEGFEANIGNIFISLGIMARANEESLRKSERICAAWRLKRKNLHNIKLTANCPGWLELTPDKKDFILKEDRVEIVKQIFELSLSGLGVKAISTILNKQKIEPFRSKIGWYQTTVRKILSNSAVIGEFQPHVFGSKHSKPVPDGELIKDYFPPIIDTDTFYAVQAKLKNGAHREGHHHHHH | soluble
MSLDIVSHQKIRRFEAGTFQEIESSVATEYPLTIYVNDQELVTIVCTPEYLEDLVVGFLTSEGIVRGPRDINSVDIIEATGHAKVSANFVNKFNAKYRGKRYITSCCGKSRENFYFQSDASLVNVKQNGNLQLTTDMIFRLMEKFEQNSATFHQTGGVHNAALCSSAEIIYSRMDIGRHNALDKIYGRALQDGTSTEDKAIIFSGRISSEILVKTAKLGCGIILSRSAPTELAINMAEELNITTVGFIRGDRLNVYSGFERITEGHHHHHH | soluble
MKIESWKEGDFVNVPGKQAVSLEEFYRMRETTDRILEYIDGAVLMSPSPSTQHQRISGRLHVQLFHFLEGKPCEVFHAPFDIELKNERIEGKKIVVPDLTVICDRSGLTDSKFVGVPTLIIEILSPSNQAYDLVFKLNLYMQYGVGEYWIVNPMHSVVQIYSLNDDGQYEQAGVWKETGMACSRALDGFSVDVEQLFRP | not soluble
MEVKLWNDKREREMYENFAELFAIIKATEKLEKAYIRDLINPSEYESECQKLIVHFKTLSATLKDTVPNIERFADTYKMDCPAALYRLVTSGLPATVEHRATVAASTSNSASIVAECVQNFITSMDSLKLNMVAVDQVYPLLSDLSASLNKLSILPPDFEGKTKMKEWLSRLSKMGAADELTEQQSRQLHFDLESSYNSFMAALPKAGN | soluble
